In patent publication US20190300589A1 (GREENOVATION BIOTECH, published 2019):

How the values were obtained:
[1] = molecular target: the molecule itself; test: size exclusion chromatography (Superdex 200 10/300 GL), self-association
Description: FIG. 5. Multimeric complexes increase AP regulatory activity of MFHR1 in human serum. A) Size exclusion chromatography (Superdex 200 10/300 GL) of bovine serum albumin (BSA), serum plasma derived FH (hFH) and MFHR1. The three compositions of BSA mixture presented different retention volumes based on molecular mass, which was I. BSA trimer (198 kDa, 10.35 ml), II. BSA dimer (132 kDa, 11.45 ml) and III. BSA monomer (66 kDa, 13.4 ml). […] Theoretical trimer (II. 10.7), dimer (III. 11.4) intermediates (IV.-V.) or monomeric (IV. 13.5) MFHR1 are indicated in the elution profile. B) Analysis of MFHR1 after elution from SEC column as performed in A. 20 μl protein from fractions was loaded on a 10% SDS-PAGE and silver stained C) Afterwards, single or pooled MFHR1 SEC fractions were added into human serum at 10 nM and AP activation was proceeded by incubation in LPS coated wells using AP specific buffer conditions. Regulatory efficiency of MFHR1 fractions was analyzed by measuring C5b-9 complex formation. AP activity of untreated control serum was set to 100%.

[2] = molecular target: C5 (complement component C5) (UniProt P01031 19-673; P01031 678-1676); test: ELISA, hFH (133 nM) immobilised, C5 in solution, detected with monoclonal C5 antibodies
C5 (complement component C5), sequence (P01031 19-673 limits assumed, chain 1 of 2): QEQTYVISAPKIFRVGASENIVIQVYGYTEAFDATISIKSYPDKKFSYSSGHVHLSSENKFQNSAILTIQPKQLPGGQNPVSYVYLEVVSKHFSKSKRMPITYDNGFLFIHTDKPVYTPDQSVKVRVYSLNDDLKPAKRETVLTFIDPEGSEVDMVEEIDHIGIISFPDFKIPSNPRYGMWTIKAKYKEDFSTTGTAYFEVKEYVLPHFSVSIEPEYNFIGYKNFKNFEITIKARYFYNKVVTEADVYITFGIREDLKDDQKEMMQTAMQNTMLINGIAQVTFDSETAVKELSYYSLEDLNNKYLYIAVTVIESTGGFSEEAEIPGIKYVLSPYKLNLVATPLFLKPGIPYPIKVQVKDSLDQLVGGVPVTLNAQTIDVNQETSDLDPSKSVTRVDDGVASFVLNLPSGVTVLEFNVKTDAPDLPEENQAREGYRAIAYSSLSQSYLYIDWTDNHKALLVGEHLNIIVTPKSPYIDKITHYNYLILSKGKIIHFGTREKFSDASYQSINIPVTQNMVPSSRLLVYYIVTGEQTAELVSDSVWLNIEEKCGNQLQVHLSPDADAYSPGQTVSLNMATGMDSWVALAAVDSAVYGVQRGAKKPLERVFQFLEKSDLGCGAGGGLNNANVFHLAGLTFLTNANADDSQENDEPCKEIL
C5 (complement component C5), sequence (P01031 678-1676 limits assumed, chain 2 of 2): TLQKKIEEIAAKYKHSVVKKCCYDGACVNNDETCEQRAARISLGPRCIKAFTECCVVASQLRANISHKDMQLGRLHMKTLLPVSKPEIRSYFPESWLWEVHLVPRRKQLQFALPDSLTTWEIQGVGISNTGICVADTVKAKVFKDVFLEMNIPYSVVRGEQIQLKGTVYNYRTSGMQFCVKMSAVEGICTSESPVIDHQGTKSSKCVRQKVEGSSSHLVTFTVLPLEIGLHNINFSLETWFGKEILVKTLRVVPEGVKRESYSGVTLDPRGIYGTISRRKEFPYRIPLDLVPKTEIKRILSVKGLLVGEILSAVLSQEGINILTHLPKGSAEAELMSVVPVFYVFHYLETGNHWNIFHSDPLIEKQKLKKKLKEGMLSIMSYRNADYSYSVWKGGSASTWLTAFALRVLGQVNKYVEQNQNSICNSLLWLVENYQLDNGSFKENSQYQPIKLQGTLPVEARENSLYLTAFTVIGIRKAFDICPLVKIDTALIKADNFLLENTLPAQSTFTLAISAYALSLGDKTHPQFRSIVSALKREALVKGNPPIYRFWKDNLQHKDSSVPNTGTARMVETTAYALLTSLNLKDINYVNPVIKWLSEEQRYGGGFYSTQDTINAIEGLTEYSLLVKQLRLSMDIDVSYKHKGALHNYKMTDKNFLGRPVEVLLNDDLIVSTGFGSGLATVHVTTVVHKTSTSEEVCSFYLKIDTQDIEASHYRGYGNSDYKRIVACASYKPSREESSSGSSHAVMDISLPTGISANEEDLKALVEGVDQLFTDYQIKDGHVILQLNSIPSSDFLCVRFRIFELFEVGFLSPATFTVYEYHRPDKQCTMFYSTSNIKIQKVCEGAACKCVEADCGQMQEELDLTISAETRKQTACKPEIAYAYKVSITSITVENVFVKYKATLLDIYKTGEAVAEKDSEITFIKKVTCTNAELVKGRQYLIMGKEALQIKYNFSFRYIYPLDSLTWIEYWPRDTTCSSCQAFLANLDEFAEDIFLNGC
Description: FIG. 3. MFHR1 binds C5 and regulates terminal pathway activation by inhibition of the C5 convertase/C5 cleavage and MAC formation. A) MFHR1 binds to C5 as determined by ELISA. Equimolar amounts of MFHR1, full length FHR1, hFH or BSA (133 nM) were immobilized to Nunc plates and incubated with increasing concentrations (10, 20, 40 μg/ml) of C5. Binding was detected using monoclonal C5 antibodies and HRP-labelled secondary antibodies. Data are mean±SD from n=3 experiments B) MFHR1 inhibits AP activation by blockade of C5 cleavage. Cobra venom factor (CVF) C5 convertase was generated on sheep erythrocytes (sE) after adding Factor B (FB) and Factor D (FD). Hemolysis was induced after adding C5, C6, C7, C8 and C9 components and detected at 414 nm. […] C) MFHR1 inhibits formation of the membrane attack complex (MAC) on sE. MAC formation on sE was induced by incubation with C5b6, C7, C8 and C9 components and detected by hemolysis of cells. Preincubation of C5b6 with MFHR1, FHR1 or Eculizumab inhibited hemolysis at significant levels compared to hFH or BSA. […] In B and C control without regulator (w/o) was set as 100%. All data represent mean values ±SD of 3 separate experiments. ***P<0.001 vs. w/o control, one-way ANOVA with Bonferroni multiple comparison test.

Binder | binding result [1] | binding result [2]
MFHR1 (His-tag - FHR1(SCR1-2)-FH(SCR1-4)-FH(SCR19-20)) (other, Recombinant fusion protein expressed in SF9 insect cells (baculovirus); By size exclusion chromatography it runs mostly as a multimer; also called MFHR1 with His tag) ADLGSHHHHHHHHHHDYDRSFCDFPKINHGILYDEEKYKPFSQVPTGEVFYYSCEYNFVSPSKSFWTRITCTEEGWSPTPKCLRLCFFPFVENGHSESSGQTHLEGDTVQIICNTGYRLQNNENNISCVERGWSTPPKCRSEDCNELPPRRNTEILTGSWSDQTYPEGTQAIYKCRPGYRSLGNVIMVCRKGEWVALNPLRKCQKRPCGHPGDTPFGTFTLTGGNVFEYGVKAVYTCNEGYQLLGEINYRECDTDGWTNDIPICEVVKCLPVTAPENGKIVSSAMEPDREYHFGQAVRFVCNSGYKIEGDEEMHCSDDGFWSKEKPKCVEISCKSPDVINGSPISQKIIYKENERFQYKCNMGYEYSERGDAVCTESGWRPLPSCEDSTGKCGPPPPIDNGDITSFPLSVYAPASSVEYQCQNLYQLEGNKRITCRNGQWSEPPKCLHPCVISREIMENYNIALRWTAKQKLYSRTGESVEFVCKRGYRLSSRSHTLRTTCWDGKLEYPTCAKR | binds | 
human plasma derived Factor H (hFH) (other, Purified from human plasma, so the mature protein; also called FHplasma; plasma purified FH) EDCNELPPRRNTEILTGSWSDQTYPEGTQAIYKCRPGYRSLGNVIMVCRKGEWVALNPLRKCQKRPCGHPGDTPFGTFTLTGGNVFEYGVKAVYTCNEGYQLLGEINYRECDTDGWTNDIPICEVVKCLPVTAPENGKIVSSAMEPDREYHFGQAVRFVCNSGYKIEGDEEMHCSDDGFWSKEKPKCVEISCKSPDVINGSPISQKIIYKENERFQYKCNMGYEYSERGDAVCTESGWRPLPSCEEKSCDNPYIPNGDYSPLRIKHRTGDEITYQCRNGFYPATRGNTAKCTSTGWIPAPRCTLKPCDYPDIKHGGLYHENMRRPYFPVAVGKYYSYYCDEHFETPSGSYWDHIHCTQDGWSPAVPCLRKCYFPYLENGYNQNYGRKFVQGKSIDVACHPGYALPKAQTTVTCMENGWSPTPRCIRVKTCSKSSIDIENGFISESQYTYALKEKAKYQCKLGYVTADGETSGSITCGKDGWSAQPTCIKSCDIPVFMNARTKNDFTWFKLNDTLDYECHDGYESNTGSTTGSIVCGYNGWSDLPICYERECELPKIDVHLVPDRKKDQYKVGEVLKFSCKPGFTIVGPNSVQCYHFGLSPDLPICKEQVQSCGPPPELLNGNVKEKTKEEYGHSEVVEYYCNPRFLMKGPNKIQCVDGEWTTLPVCIVEESTCGDIPELEHGWAQLSSPPYYYGDSVEFNCSESFTMIGHRSITCIHGVWTQLPQCVAIDKLKKCKSSNLIILEEHLKNKKEFDHNSNIRYRCRGKEGWIHTVCINGRWDPEVNCSMAQIQLCPPPPQIPNSHNMTTTLNYRDGEKVSVLCQENYLIQEGEEITCKDGRWQSIPLCVEKIPCSQPPQIEHGTINSSRSSQESYAHGTKLSYTCEGGFRISEENETTCYMGKWSSPPQCEGLPCKSPPEISHGVVAHMSDSYQYGEEVTYKCFEGFGIDGPAIAKCLGEKWSHPPSCIKTDCLSLPSFENAIPMGEKKDVYKAGEQVTYTCATYYKMDGASNVTCINSRWTGRPTCRDTSCVNPPTVQNAYIVSRQMSKYPSGERVRYQCRSPYEMFGDEEVMCLNGNWTEPPQCKDSTGKCGPPPPIDNGDITSFPLSVYAPASSVEYQCQNLYQLEGNKRITCRNGQWSEPPKCLHPCVISREIMENYNIALRWTAKQKLYSRTGESVEFVCKRGYRLSSRSHTLRTTCWDGKLEYPTCAKR |  | no binding (tested: 10, 20, 40 µg/ml of C5)
